From the DeepSol protein solubility set come the findings set out here.

The nature of this data set: soluble on expression in E. coli; label from the status in PepcDB or PDB records.
As to “MRHGCHTVIASRSLPRVLTAARKLAGATGRRCLPLSMDVRAPPAVMAAVDQALKEFGRIDILINCAAGNFLCPAGALSFNAFKTVMDIDTSGTFNVSRVLYEKFFRDHGGVIVNITATLGNRGQALQVHAGSAKAAVDAMTRHLAVEWGPQNIRVNSLAPGPISGTEGLRRLGGPQASLSTKVTASPLQRLGNKTEIAHSVLYLASPLASYVTGAVLVADGGAWLTFPNGVKGLPDFASFSAKL”, the “soluble on expression in E. coli” value is “not soluble”.
With “MRHISIFGTSSDAGKSTLTFVIAKILQRAGIRVAPFKAQNVSNNARVCDDGSEIAIAQSFQAEVLAIPTSYHLNPILLKSGINGQASVIVEGQVISQQDVLEYYRDLDTLKPAVQRCFETLAKMYDCIVAEGAGSPVELNLMDKDLSNIFIAKHYQTKIILVADIEKGGVFASVWGTYNLLPADLRSNVIGVIINKFRGDLSLFDEGIRIIEQAFKIPVLGVLPYMPFNLGFEDNASLQNFVQQPRQKKLKIGVIAYPYMSNYNDFEPLIADDEVLLEFINSPISLEHFDGVILPGSKLVIEDLHWLKTNGLFEQLQQRRKPIFAICGGYEMLFEQLHDPERIENLEPTTATGLGLIDDEIYFAKNKILNKAEYPIFGLNIAGFEMHHGISQKYPLYFQKDNIQGTFIHQVFDHNAFRTQYLRAICAQYQGFDFQLYKTEQINNFIEACRKRLNVKLILEAIQDQ” the entry was “not soluble”; with “MRHLKSFYVFHVAASSSSYTEAADKLNITHGAVSKQIKQLEQYLSQPLFLKEGRKSVLTAEGELLKTYTKTAFQTLETGVNTLIQEKHQHLEVSCEPTLTMRWLMPRLAAFNDEHRADVR”, “not soluble”.
Next, “MRHPIPDYLASLVTELGAVNPGETAQYIPVLAEADPDRFGIALATPTGRLHCAGDADVEFTIQSASKPFTYAAALVDRGFAAVDRQVGLNPSGEAFNELSLEAESHRPDNAMINAGALAVHQLLVGPEASRKERLDRAVEIMSLLAGRRLSVDWETYESEMAVSDRNLSLAHMLRSYGVLQDSAEEIVAGYVAQCAVLVTVKDLAVMGACLATGGIHPMTGERMLPSIVARRVVSVMTSSGMYDAAGQWLADVGIPAKSGVAGGVLGALPGRVGIGVFSPRLDEVGNSARGVLACRRLSEDFRLHLMDGDSLGGTAVRFVEREGDRVFLHLQGVIRFGGAEAVLDALTDLRTGAEKPGTGWDAAVYPRWQEAAADRAALSAATGGGAVHEAAAAAARDENDGPIRTVVLNLARVDRIDDVGRRLIAEGVRRLQADGVRVEVEDPERILPLEEAGAH”: “soluble”; “MRHPLISLLLLIAFYSTSSEAFVPKCNSFYVRWPRVRLNFKAVAEARLSLKGCQSACSLGEDPVSPGKQLECAAVNHQASPDGFSHLCAVFQPHQLQNVDGYVEADDRFTFYWKYCLPSTRKCSGEYAFTYLSDRYMDQKSVIKWTTKANLEECLSDCLDEKSFECRSISFNRTDGGCHMSKDSQISRPEAIRLNNNPNYRIDYYENNCYNLSESFTFKHECRDNGISVSVKSRLPYTGAIYGLYDFFTCRTEPKEATEFDHFFPYQTVSKNCSDSIKYKGNEMVLEVVLSTDGIEPLYFITPEDLTYQAKCPISGVKAKDPANTKSSAHLDNRNKAMEASAHALFELLSKTGDDEALQNTFPLPLTTTTEVISDVPTTTVQTSTTVPTTPSKTTATTTTTPKPTTTETATTSSSTTTVTTQKPTTVTSTTTLPSTTASTTTKTTTSTPTSPQTTTTHVGAPASSVASVAHDGSTLAGKPKVPVIFDIFHNGQPVEAVVVGTKISLSFRPHYPIPPEYVDVRGCQVEPIDPKYEWEHEPLFIIRDGCPADGVGLVCPPTHSEFGAKVSVEAFRYQTTGQVQYSCLVRICPFAPCPKNTCDDVEGCDSSYMHRYRRELSLEDIKKALEANPELASQFGISPSAFARNPSKSKNFTSVVEEQQRIALGGDYLVRRRLIVVNSEDQLRYYVRTGNI”: “not soluble”; “MRHVSNGDPVRVVIVTDGAYGAPAESGDYAQTRRRESTRAAAILGYGAPEFWNLPDRGLEYGERLIQRVLTAMEDHAAELVYAPSWWEVHPDHRVLALAATEAVRRCTRPLRLAMYEVGVPLQPNALLDITDLAERKASAVACFSSQLAQQDYDEQIASLNRFRTYTLPRTVRAAEGYLVLAAEELRNRIPRMMTQKDRLAVRGETGDTAATPLVSVIIPSMDGPRLKEALDSVALQTYPRIEAVVIDAKGEGHTPLPRWCGRFPLRFIPSDISLSRGRAADVGLEHAEGDYLVFLGEDDVFQPGDVASLVAEAARKQGTGLCSHADRRMTVFSGGVVDGSPRTGKPGKPAFLPLHAVLFDRSLAELRCRFDGDANVPEDGDFWDQAMQHVASIHPGACRHGHGLPGGEAGRHTIVRLPPWTSPAPLPPGASLARTPHPTERDSLRRRIQRAGRRIYETPPRGLTDALVRTAYRIWARLSSDSMITNDGKGTLEHHHHHH”: “not soluble”.
With “MRIAVIDYDKCNPDKCGHFLCERVCPVNRMGGEAIIIDEENNRPIIQEASCTGCGICVHKCPFKAISIVNLPEQLEEDCVHRYGVNAFVLYRLPVVKDGMVVGIVGPNGTGKTTAVKILAGQLIPNLCCDNDSWDDVIKAFRGSELQNYFEKLKNGEIKPVVKPQYVDLLPKAVKGKVGELLKKVDETGKFEEIVKVLELEKVLEREIDQLSGGELQRVAIAAAILRKAHFYFFDEPSSYLDIRQRLNVARVIRRLADEGKAVLVVEHDLAVLDYLSDIVHIVYGEPGVYGIFSQPKGTRNGINEFLQGYLKDENVRFRPYEIKFTKLSERVEVERETLVEYPRLVKDYGSFKLEVEPGEIRKGEVIGIVGPNGIGKTTFVKMLAGVEEPTEGKVEWDLTVAYKPQYIKAEYEGTVYDLLSKIDASKLNSNFYKTELLKPLGIIDLYDKNVNELSGGELQRVAIAATLLRDADIYLLDEPSAYLDVEQRLATSRAIRHLMEKNEKTALVVEHDVLMIDYVSDRLIVFEGEPSKYGKALPPMGMREGMNRFLASVGITFRRDPDTGRPRANKEGSVKDREQKEKGEYYYTD” the entry was “soluble”; with “MRIIMPVEFSRIVRDVERLIAVEKYSLQGVVDGDKLLVVGFSEGSVNAYLYDGGETVKLNREPINSVLDPHYGVGRVILVRDVSKGAEQHALFKVNTSRPGEEQRLEAVKPMRILSGVDTGEAVVFTGATEDRVALYALDGGGLRELARLPGFGFVSDIRGDLIAGLGFFGGGRVSLFTSNLSSGGLRVFDSGEGSFSSASISPGMKVTAGLETAREARLVTVDPRDGSVEDLELPSKDFSSYRPTAITWLGYLPDGRLAVVARREGRSAVFIDGERVEAPQGNHGRVVLWRGKLVTSHTSLSTPPRIVSLPSGEPLLEGGLPEDLRRSIAGSRLVWVESFDGSRVPTYVLESGRAPTPGPTVVLVAGGPFAEDSDSWDTFAASLAAAGFHVVMPNYRGSTGYGEEWRLKIIGDPCGGELEDVSAAARWARESGLASELYIMGYSYGGYMTLCALTMKPGLFKAGVAGASVVDWEEMYELSDAAFRNFIEQLTGGSREIMRSRSPINHVDRIKEPLALIHPQNDSRTPLKPLLRLMGELLARGKTFEAHIIPDAGHAINTMEDAVKILLPAVFFLATQRERR”, “soluble”; with “MRILLIHSDYIEYEVKDKAIKNPEPISEEEKKGRMDEVLVAFISVEKVDETNPEEVVSKAVEEIINVASQVKAENVFVYPFAHLSSELAKPSVAQEILRKVYEGLKEKGYNVGKAPFGYYKAFKISCKGHPLAELSRTIIPEGAKEEEVPEALKKEETELVSYWYILTPEGELIEVDKFDFTGYENLRKFANYEISKSRIAEKEPPHVKLMLEHELVDYEPGSDPGNLRYYPKGRLIKSLLEQYVTEKVIEYGAMEVETPVMYDFEHPALEKYLNRFPARQYIVLSGDKKYFLRFAACFGQFLISKDAVISYRHLPLRMYELTRYSFRREKRGELSGLRRLRAFTMPDMHTLAKDLEQAKDEFKKQFKLSMEVLKGVGLTPEDYEVAIRFTEDFWKENRDFIVELVKIIGKPVLIEMWKQRFFYFILKFEFNFVDNLDKAAALSTVQIDVENAERFGIKYYDENGEEKYPLILHCSPSGAIERVMYAILEKQAKLMQEGKKPMLPLWLSPIQVRVIPVSEEYLDYALYIAGKLEGARIRVDVDDEDERLNKKIRRAEKEWIPYIVVVGAKEKESGTITVRRREDGKQYETRLEELIKEIKEKVEGFPYKPRPLPLLLSKRPKFRG”, “soluble”.
“MRIMGLDVGSKTVGVAISDPLGFTAQGLEIIKIDEEKAEFGFTRLEELVKQYQVEQFVIGLPKNMNNTNGPRVDASITYGNHIEHLFGLPVHYQDERLTTVEAERMLIEQADISRGKRKKVIDKLAAQLILQNYLNRNFLEHHHHH”: the “soluble on expression in E. coli” value is listed as “soluble”.
As for “MRITLVDHPLVQHKLAHLRDKRTGPKDFRELAEEVAMLMAYEAMRDLELEETTVETPIAPARVKVLSGKKLALVAILRAGLVMVEGILKLVPHARVGHIGLYRDPESLNPVQYYIKLPPDIAERRAFLLDPMLATGGSASLALSLLKERGATGVKLMAILAAPEGLERIAKDHPDTEVVVAAIDERLNDHGYIVPGLGDAGDRIYGTK”, the “soluble on expression in E. coli” value is listed as “soluble”.
Next, “MRIWNRIRCISTIRKNPTCQDVKAPLVSSQVFDPDVWSWNSAPESSLDLPIDSSPNFSMPPATSSETEFAENEESTSSSDDKKKRSEVIEENRSDGHAPIKSALSILMRSLQKSSSMTTSLSDIDVTLFNFHSTKFAERLLNRNVSSVVIVESSHVFSKNAKKFASEFSNVSAYRADIYTLMGVGRKKTAQFPRKMMFADFGKNETPEQYENIHPLTLTSAESSSNSEHLHAKFRRPHLLGVLPTPTIQRTILDSMIQHVLLHHSGNDEDTIFRYGDTNLLTFLGSGILAQYTCSTDNRLNFLSHQHRRHSALFNKLFEVKMLQTRQSEDPETAEIPIGHPPTSFHPLLPTAKKITHEKKLSDVNLTNGLQYPVQILPQKHLKIGGNEVTTENGMGRMLVDYACFMTQIGRQPNAKAVDQVVRLLWPESALSIPADILGDHKIGQLPNDHLDVIFQHVHEELHNTSIAKTYCNELKIKRAI”: “not soluble”; “MRKDETSNTSPDISAAQPASALRYHLRPPRRNDGAAIHQLVSECPPLDLNSLYAYLLLCEHHAHTCVVAESPGGRIDGFVSAYLLPTRPDVLFVWQVAVHSRARGHRLGRAMLGHILERQECRHVRHLETTVGPDNQASRRTFAGLAGERGAHVSEQPFFDRQAFGGADHDDEMLLRIGPFTHPPH”: “not soluble”; “MRKEAIHHRSTDNFAYAYDSETLHLRLQTKKNDVDHVELLFGDPYEWHDGAWQFQTMPMRKTGSDGLFDYWLAEVKPPYRRLRYGFVLRAGGEKLVYTEKGFYHEAPSDDTAYYFCFPFLHRVDLFQAPDWVKDTVWYQIFPERFANGNPAISPKGARPWGSEDPTPTSFFGGDLQGIIDHLDYLADLGITGIYLTPIFRAPSNHKYDTADYFEIDPHFGDKETLKTLVKRCHEKGIRVMLDAVFNHCGYEFAPFQDVLKNGAASRYKDWFHIREFPLQTEPRPNYDTFAFVPHMPKLNTAHPEVKRYLLDVATYWIREFDIDGWRLDVANEIDHQFWREFRQAVKALKPDVYILGLIWHDAMPWLRGDQFDAVMNYPLADAALRFFAKEDMSASEFADRLMHVLHSYPKQVNEAAFNLLGSHDTPRLLTVCGGDVRKVKLLFLFQLTFTGSPCIYYGDEIGMTGGNDPECRKCMVWDPEKQNKELYEHVKQLIALRKQYRALRRGDVAFLTADDEVNHLVYAKTDGNETVMIIINRSNEAAEIPMPIDARGKWLVNLLTGERFAAEAETLCVSLPPYGFVLYAVESW”: “soluble”.
Next, “MRKEEVLALLRSRWPELCALGVAELYLFGSLARGEARPRSDVDLLVAFATPPGFEGYWRVKEFLESLLGRPVDLVMKGALKPWAVSEVLGEAVRVA”: “soluble”; “MRKIHFTDKYLLSPYHPVTVLVAGAGGTGSQVITSLARMSVALQALGHPGLHLTAFDPDTVTEANIGRQLFSETELGLNKATALVTRVNRFFGYAWEARECRYPIITKEGDKSVPLANIIITCTDNTRSRLDLWRFLKKYREYKKNDEKAPIYWMDFGNAQTTGQVLIGNIRSKISQPASSEYLPMPRMNVITEEVSYSTIREEDSGPSCSLAEALRKQDLFINSMLAQIGCDILWCMFREGRTFYRGAYLNLDTLRVNPIPV”: “not soluble”.
